Measured values as given in PMC5426849.

What follows are substances tested against fluoresceinated cortactin phospho-Y482 peptide (assay: fluorescence polarisation).
“p85α N-terminal SH2 domain, cleaved from GST (domain or fragment)” showed a Kd greater than 5 µM. In the case of “p85α C-terminal SH2 domain, cleaved from GST (domain or fragment)”, the Kd is reported as greater than 5 µM. With “PLCγ N-terminal SH2 domain, cleaved from GST (domain or fragment)” the Kd was greater than 5 µM. “PLCγ C-terminal SH2 domain, cleaved from GST (domain or fragment)” gave a Kd greater than 5 µM. For “Abl SH2 domain, monomeric, cleaved from GST (from UniProt P00519 127-217) (domain or fragment)”, the Kd was greater than 5 µM.
